Assay results: patent US20250236682A1 (CENTENAIRE BIOSCIENCES, published 2025)

Tests used:
[1] = biological target: T1, neonatal Fc receptor (FcRn) (Homo sapiens (Human), UniProt P55899 24-297; P61769 21-119); assay: BLI, antibody on FAB2G sensor, FcRn analyte, pH 6.0
T1 construct: analyte in solution at pH 6.0; copies: 1 + 1

[2] = biological target: T2, human HER2 recombinant protein (R&D systems, 1129-ER) (human, UniProt P04626 23-652); assay: BLI, HER2 on HIS1K sensor
T2 construct: extracellular domain; also called HER2 antigen; HER2 extracellular domain (ECD)

[3] = biological target: T2, human HER2 recombinant protein (R&D …); assay: BLI, HER2 on HIS1K sensor, 1 to 32 nM antibody
[4] = biological target: T3, human FcγRI (R&D systems, 1257-FC) (human, UniProt P12314 16-288); assay: BLI, His-FcγRI on HIS1K sensor
T3 construct: bought; also called FcγRI(CD64); Fcγ receptor 1
T3 sequence (P12314 16-288 limits assumed): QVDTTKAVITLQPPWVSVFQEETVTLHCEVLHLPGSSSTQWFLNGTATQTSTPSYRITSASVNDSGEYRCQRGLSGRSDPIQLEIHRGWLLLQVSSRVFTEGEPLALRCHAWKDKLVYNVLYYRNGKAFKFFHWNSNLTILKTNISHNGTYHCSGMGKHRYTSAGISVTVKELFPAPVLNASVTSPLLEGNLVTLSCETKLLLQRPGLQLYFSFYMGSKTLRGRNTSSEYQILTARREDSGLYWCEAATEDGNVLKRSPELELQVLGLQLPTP

[5] = biological target: T4, human FcγRIIIA (176V isoform, R&D systems, 4325-FC) (human, UniProt P08637 17-208); assay: BLI, His-FcγRIIIA on HIS1K sensor
T4 construct: bought; also called FcγRIIIA(CD16A, 176V); Fcγ receptor 3A (176V isoform)
T4 sequence (P08637 17-208 F176V limits assumed): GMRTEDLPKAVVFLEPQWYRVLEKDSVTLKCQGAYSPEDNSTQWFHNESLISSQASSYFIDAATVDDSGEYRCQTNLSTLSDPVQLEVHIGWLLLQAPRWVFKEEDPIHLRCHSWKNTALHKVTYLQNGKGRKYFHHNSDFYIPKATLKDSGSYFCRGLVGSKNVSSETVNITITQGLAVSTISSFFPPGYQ

T1 sequence (P55899 24-297 limits assumed, form in doubt, chain 1 of 2): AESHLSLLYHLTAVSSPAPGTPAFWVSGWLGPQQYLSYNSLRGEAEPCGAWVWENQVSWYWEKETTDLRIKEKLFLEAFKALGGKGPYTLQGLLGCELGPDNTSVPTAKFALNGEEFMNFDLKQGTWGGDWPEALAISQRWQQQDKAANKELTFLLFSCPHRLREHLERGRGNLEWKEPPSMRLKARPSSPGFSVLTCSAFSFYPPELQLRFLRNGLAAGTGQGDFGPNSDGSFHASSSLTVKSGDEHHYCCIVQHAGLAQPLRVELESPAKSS
T1 sequence (P61769 21-119 limits assumed, form in doubt, chain 2 of 2): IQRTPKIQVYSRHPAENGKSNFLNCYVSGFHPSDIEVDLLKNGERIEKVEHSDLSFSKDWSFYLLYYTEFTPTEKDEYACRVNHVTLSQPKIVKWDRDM

B1: pertuzumab (antibody, V domains shown)
VH: EVQLVESGGGLVQPGGSLRLSCAASGFTFTDYTMDWVRQAPGKGLEWVADVNPNSGGSIYNQRFKGRFTLSVDRSKNTLYLQMNSLRAEDTAVYYCARNLGPSFYFDYWGQGTLVTVSS
VL: DIQMTQSPSSLSASVGDRVTITCKASQDVSIGVAWYQQKPGKAPKLLIYSASYRYTGVPSRFSGSGSGTDFTLTISSLQPEDFATYYCQQYYIYPYTFGQGTKVEIK
- Kd [1]: 322 nM
- koff [1]: 0.0154 s⁻¹
- kon [1]: 47900 M⁻¹ s⁻¹

B2: H01Fv1 (antibody, human IgG1)
heavy: not shown
light: not shown
chain: DKTHTCPPCPAPELLGGPSVFLFPPKPKDTLMISRTPEVTCVVVDVSHEDPEVKFNWYVDGVEVHNAKTKPREEQYNSTYRVVSVLTVLHQDWLNGKEYKCKVSNKALPAPIEKTISKAKGQPREPQVCTLPPSREEMTKNQVSLSCAVKGFYPSDIAVEWESNGQPENNYKTTPPVLDSDGSFFLVSKLTVDKSRWQQGNVFSCSVMHEALHNRFTQKSLSLSPGK
notes: also called Fv-(Fc)2, VH G44C / VL Q100C
- Kd [2]: 0.244 nM
- koff [2]: 5.11e-05 s⁻¹
- kon [2]: 210000 M⁻¹ s⁻¹

B3: H01Fv4 (antibody, human IgG1)
heavy: not shown
light: not shown
chain: DKTHTCPPCPAPELLGGPSVFLFPPKPKDTLMISRTPEVTCVVVDVSHEDPEVKFNWYVDGVEVHNAKTKPREEQYNSTYRVVSVLTVLHQDWLNGKEYKCKVSNKALPAPIEKTISKAKGQPREPQVCTLPPSREEMTKNQVSLSCAVKGFYPSDIAVEWESNGQPENNYKTTPPVLDSDGSFFLVSKLTVDKSRWQQGNVFSCSVMHEALHNRFTQKSLSLSPGK
notes: also called Fv-(Fc)2, VH G44C, Q105C / VL Q100C, A43C
- Kd [2]: 0.326 nM
- koff [2]: 7.71e-05 s⁻¹
- kon [2]: 237000 M⁻¹ s⁻¹

B4: H01Fv7 (antibody, human IgG1, kappa)
heavy: not shown
light: not shown
chain: DKTHTCPPCPAPELLGGPSVFLFPPKPKDTLMISRTPEVTCVVVDVSHEDPEVKFNWYVDGVEVHNAKTKPREEQYNSTYRVVSVLTVLHQDWLNGKEYKCKVSNKALPAPIEKTISKAKGQPREPQVCTLPPSREEMTKNQVSLSCAVKGFYPSDIAVEWESNGQPENNYKTTPPVLDSDGSFFLVSKLTVDKSRWQQGNVFSCSVMHEALHNRFTQKSLSLSPGK
notes: also called Fv-(Fc)2, VH G44C, Q105C, F126C / VL Q100C, A43C, S121C
- Kd [2]: 0.279 nM
- koff [2]: 7.7e-05 s⁻¹
- kon [2]: 276000 M⁻¹ s⁻¹

B5: H01Fv5 (antibody, human IgG1, kappa)
heavy: not shown
light: not shown
chain: DKTHTCPPCPAPELLGGPSVFLFPPKPKDTLMISRTPEVTCVVVDVSHEDPEVKFNWYVDGVEVHNAKTKPREEQYNSTYRVVSVLTVLHQDWLNGKEYKCKVSNKALPAPIEKTISKAKGQPREPQVCTLPPSREEMTKNQVSLSCAVKGFYPSDIAVEWESNGQPENNYKTTPPVLDSDGSFFLVSKLTVDKSRWQQGNVFSCSVMHEALHNRFTQKSLSLSPGK
notes: also called Fv-(Fc)2, VH G44C, F122C / VL Q100C, S121C
- Kd [2]: 0.393 nM
- koff [2]: 0.000107 s⁻¹
- kon [2]: 273000 M⁻¹ s⁻¹

B6: P01DE4 (antibody, human IgG1, kappa)
heavy: not shown
light: not shown
chain: DKTHTCPPCPAPELLGGPDVFLFPPKPKDTLMISRTPEVTCVVVDVSHEDPEVKFNWYVDGVEVHNAKTKPREEQYNSTYRVVSVLTVLHQDWLNGKEYKCKVSNKALPAPEEKTISKAKGQPREPQVCTLPPSREEMTKNQVSLSCAVKGFYPSDIAVEWESNGQPENNYKTTPPVLDSDGSFFLVSKLTVDKSRWQQGNVFSCSVMHEALHNHYTQKSLSLSPGK
notes: monovalent Fab-(Fc)2; also called P01 with S239D and I332E in all Fc chains
- Kd [3]: 0.224 nM
- koff [3]: 5.51e-05 s⁻¹
- kon [3]: 246000 M⁻¹ s⁻¹
- Kd [4]: 0.038 nM
- koff [4]: 2.85e-05 s⁻¹
- kon [4]: 748000 M⁻¹ s⁻¹
- Kd [5]: 0.33 nM
- koff [5]: 0.000159 s⁻¹
- kon [5]: 478000 M⁻¹ s⁻¹

B7: H01Fv2 (antibody, human IgG1)
heavy: not shown
light: not shown
chain: DKTHTCPPCPAPELLGGPSVFLFPPKPKDTLMISRTPEVTCVVVDVSHEDPEVKFNWYVDGVEVHNAKTKPREEQYNSTYRVVSVLTVLHQDWLNGKEYKCKVSNKALPAPIEKTISKAKGQPREPQVCTLPPSREEMTKNQVSLSCAVKGFYPSDIAVEWESNGQPENNYKTTPPVLDSDGSFFLVSKLTVDKSRWQQGNVFSCSVMHEALHNRFTQKSLSLSPGK
notes: also called Fv-(Fc)2, VH Q105C / VL A43C
- Kd [2]: 0.324 nM
- koff [2]: 3.78e-05 s⁻¹
- kon [2]: 117000 M⁻¹ s⁻¹

B8: H01DE4 (antibody, human IgG1, kappa)
heavy: not shown
light: not shown
chain: DKTHTCPPCPAPELLGGPDVFLFPPKPKDTLMISRTPEVTCVVVDVSHEDPEVKFNWYVDGVEVHNAKTKPREEQYNSTYRVVSVLTVLHQDWLNGKEYKCKVSNKALPAPEEKTISKAKGQPREPQVCTLPPSREEMTKNQVSLSCAVKGFYPSDIAVEWESNGQPENNYKTTPPVLDSDGSFFLVSKLTVDKSRWQQGNVFSCSVMHEALHNHYTQKSLSLSPGK
notes: monovalent Fab-(Fc)2; also called H01 with S239D and I332E in all Fc chains
- Kd [3]: 0.145 nM
- koff [3]: 3.73e-05 s⁻¹
- kon [3]: 258000 M⁻¹ s⁻¹
- Kd [4]: 0.036 nM
- koff [4]: 3.06e-05 s⁻¹
- kon [4]: 852000 M⁻¹ s⁻¹
- Kd [5]: 0.1 nM
- koff [5]: 5.51e-05 s⁻¹
- kon [5]: 526000 M⁻¹ s⁻¹

B9: H01Fv6 (antibody, human IgG1, kappa)
heavy: not shown
light: not shown
chain: DKTHTCPPCPAPELLGGPSVFLFPPKPKDTLMISRTPEVTCVVVDVSHEDPEVKFNWYVDGVEVHNAKTKPREEQYNSTYRVVSVLTVLHQDWLNGKEYKCKVSNKALPAPIEKTISKAKGQPREPQVCTLPPSREEMTKNQVSLSCAVKGFYPSDIAVEWESNGQPENNYKTTPPVLDSDGSFFLVSKLTVDKSRWQQGNVFSCSVMHEALHNRFTQKSLSLSPGK
notes: also called Fv-(Fc)2, VH Q105C, F126C / VL A43C, S121C
- Kd [2]: 0.0487 nM
- koff [2]: 6.61e-06 s⁻¹
- kon [2]: 136000 M⁻¹ s⁻¹
